{"source": "patent US6528295", "proteins": {"B1": {"name": "recombinant human Protein Phosphatase Methylesterase-1 (PME-1) (protein)", "chain": "MSALEKSMHLGRLPSRPPLPGSGGSQSGAKMRMGPGRKRDFSPVPWSQYFESMEDVEVENETGKDTFRVYKSGSEGPVLLLLHGGGHSALSWAVFTAAIISRVQCRIVALDLRSHGETKVKNPEDLSAETMAKDVGNVVEAMYGDLPPPIMLIGHSMGGAIAVHTASSNLVPSLLGLCMIDVVEGTAMDALNSMQNFLRGRPKTFKSLENAIEWSVKSGQIRNLESARVSMVGQVKQCEGITSPEGSKSIVEGIIEEEEEDEEGSESISKRKKEDDMETKKDHPYTWRIELAKTEKYWDGWFRGLSNLFLSCPIPKLLLLAGVDRLDKDLTIGQMQGKFQMQVLPQCGHAVHEDAPDKVAEAVATFLIRHRFAEPIGGFQCVFPGC"}}, "biological_target": "methylated PP2A C subunit (epitope-tagged, immunoprecipitated), P67775", "sequence (P67775 whole entry)": "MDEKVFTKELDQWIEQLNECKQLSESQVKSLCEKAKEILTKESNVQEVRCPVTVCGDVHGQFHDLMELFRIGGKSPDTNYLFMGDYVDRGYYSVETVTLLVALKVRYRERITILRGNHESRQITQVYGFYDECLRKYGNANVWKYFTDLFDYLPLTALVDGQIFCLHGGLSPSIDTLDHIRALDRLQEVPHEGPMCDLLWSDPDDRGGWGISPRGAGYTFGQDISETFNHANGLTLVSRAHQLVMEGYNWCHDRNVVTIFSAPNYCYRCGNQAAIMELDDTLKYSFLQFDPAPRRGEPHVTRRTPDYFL", "data": [{"protein": "B1", "values": [{"measurement": "PP2A methylesterase activity: demethylation of immunoprecipitated C subunit, immunoblot with methylation-sensitive antibody 4b7", "value": "human PME-1 is a PP2A methylesterase"}, {"measurement": "amount of 3H-methyl groups remaining on C subunit after 1 h at 32° C., SDS-PAGE", "value": "PME-1 was clearly able to demethylate PP2A C subunit as measured by this assay"}, {"measurement": "methylesterase activity towards PP2A C subunit", "value": "lysates of bacteria expressing PME-1 contain a PP2A methylesterase activity not found in bacterial lysates lacking PME-1"}, {"measurement": "signal of the antibody that only recognizes unmethylated PP2A against a methylation-insensitive antibody, immunoblot", "value": "PME-1 was clearly able to demethylate PP2A C subunit, as measured by this assay"}]}]}
